Test results taken from patent publication US11464867B2, “Multimeric elastin-like polypeptides” (University of Southern California, priority 2018, dated 2022).
Values joined by “and” are separate entries in the source; they are usually repeats but may differ in a detail not shown here. Equal values may be shown once. “Also recorded” adds a separate entry of the source. Read-outs that look alike come from different tables or passages of the source.

Key:
[1] = cited from earlier work
Pin1 = Pin1 (Homo sapiens, UniProt Q13526); details: cited from earlier work
Chain of Pin1 (Q13526 whole entry): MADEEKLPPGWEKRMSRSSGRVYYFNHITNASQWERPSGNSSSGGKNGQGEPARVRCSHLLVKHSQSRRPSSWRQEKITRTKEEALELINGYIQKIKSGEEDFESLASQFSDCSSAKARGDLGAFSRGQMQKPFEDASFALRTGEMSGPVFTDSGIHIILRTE

[2] = tested on: IL-2 secretion, Jurkat cells; experiment: IL-2 secretion assay in activated Jurkat cells (ELISA); format: cell-based; details: Homo sapiens, n=3, mean±SD
Protocol: Upon stimulation, Jurkat cells produce IL-2.
IL-2 concentration in culture media is then assessed using ELISA assay.

[3] = tested on: HR+/HER2− breast cancer patients; details: in combination with exemestane; cited from earlier work
BT-474 orthotopic tumors = experiment: Orthotopic BT-474 tumors in nude mice; format: in vivo; details: 1 mg/kg every other day for 4 weeks
Source text: FIGS. 25A-25B: show results of administration of FAF formulations when tested for efficacy and safety in nude mice bearing orthotopic tumors of BT-474 cell line. Oral Eve at the same drug dose served as a clinically relevant control.
Accounting for nearly 40,000 deaths per year, breast cancer is the second deadliest cancer affecting American women. Everolimus (Eve), an analog of Rapamycin is approved to treat HR+/HER2− subtype in combination with exemestane. Currently administered as an oral formulation, Eve suffers from poor physico-chemical properties and toxicity issues like Rapamycin. Novel FAF formulations were tested for efficacy and safety in nude mice bearing orthotopic tumors of BT-474 cell line. Being a HR+ cell line, BT-474 represents nearly 80% of clinically diagnosed breast cancer. Oral Eve at the same drug dose served as a clinically relevant control. […] This is presumably a result of Eve's poor oral bioavailability.

[4] = Phase transition temperature by optical density (UV-Vis, 350 nm) versus temperature; format: physicochemical; details: for Transition temperature (Tt): at 25 μM, 1° C./min
Protocol: The temperature with the maximum positive slope was defined as the phase transition temperature for each condition. (FIG. 2B) The concentration-temperature phase diagram was determined for both ELPs, and fit to the following equation: Tt=b−m Log10[CELP].
Both ELPs at different concentrations (5 μM to 100 μM) were subject to a precisely controlled temperature increase from 25 to 75° C. at a rate of 1° C./min. The Tt of ELPs is defined as the temperature at which the first derivative of the optical density with respect to the temperature reaches a maximum.

[5] = SEC / Multi-Angle Static Light Scattering (MALS) of CA192 fractions; format: physicochemical
Protocol: The hydrodynamic radius (Rh) of both the loaded and unloaded fusion protein, along with plain A192, was measured via dynamic light scattering (DLS) using a DynaPro Plate Reader II from Wyatt Technology. Before the DLS measurement, solutions were filtered through […] pore size filters. The concentration of each solution was then adjusted to 20 μM. 60 μL from each sample was pipetted into three different wells on the plate reader and covered by 15 μL mineral oil each to avoid solvent evaporation. Centrifugation was then performed to remove air bubbles. […] Based on this DLS method, Applicants performed a stability assay to explore the stability of the fusion protein by measuring the mean Rh shift during incubation at physiological temperature. Briefly, the fusion solution was incubated at 37° C. for different periods of time up to 48 h and the mean Rh of CA192 at these different time points was measured with DLS. […] There might be some slight aggregation occurring in the CA192 protein solution. […] To determine if this was the case, further separation was conducted with size exclusion chromatography (SEC). This process was performed at 4° C. using a Hiload 26/600 column (26×600 mm, particle size 24-44 μM). […] Fragments with absorption above 10 mAu were collected and concentrated with a Spin-X concentrator (pore size 10 kDa). Two fractions were observed after SEC separation (FIG. 5C). […] (FIG. 5D) Through measuring the CA192 concentration of both fractions, Applicants determined that 20.8% by mass in solution is represented by the multimerized particles. Multi-Angle static Light Scattering (MALS) was then applied to evaluate the aggregation and oligomeric state of CA192. […] Thus, it was concluded that the CA192 fusion protein is mostly maintained as dimerized nanoparticles with a 6.5 nm hydrodynamic radius.
To further evaluate the aggregation and oligomeric state of each fraction, Multi-Angle Static Light Scattering (MALS) was then used to measure the molecular weight of both peaks. […] Similarly, fraction 1 was identified as aggregated form. […]

[6] = CsA encapsulation by two-phase solvent evaporation, RP-HPLC; format: physicochemical; details: in words
Protocol: The mixture was incubated at 37° C. and samples were collected at different time points up to 48 h.
This was followed by high-speed centrifugation and filtration to remove the excess insoluble drug. […] The mobile phase flow rate was set to 1.0 ml/min. The linear gradient from 20% to 95% of methanol was applied from 0 to 5 min. Then the mobile phase was changed to 95% methanol isocratic flow for 10 min.
This was followed by high-speed centrifugation and filtration to remove the excess insoluble drug. The loading ratio was then determined by reversed-phase high-performance liquid chromatography (RP-HPLC) analysis method.
The drug loading capability of 2nd and 3rd generation carriers were also tested using the same encapsulation method detailed above employing the method of Shi, et al., 2013.

[7] = Dynamic light scattering (DLS) hydrodynamic radius and stability; format: physicochemical
Protocol: FIGS. 5A-5D: CA192 (SEQ ID NO: 3) has a good stability in terms of hydrodynamic radius. There are two fractions present in the CA192 (SEQ ID NO: 3) solution: an aggregated form and dimeric form. A dimerized form has similar hydrodynamic radius, Rh as A192. […] Drug-loaded CA192 (SEQ ID NO: 3) has a mean Rh of 64.5±0.5 nm (p<0.05). […] (FIG. 5C) Size Exclusion Chromatography (SEC) was conducted to fractionate CA192 (SEQ ID NO: 3) depending on their particle size. Two fractions were observed. […] In contrast, the fraction 1 contains a mixture of larger aggregates.
The hydrodynamic radius (Rh) of both the loaded and unloaded fusion protein, along with plain A192, was measured via dynamic light scattering (DLS) using a DynaPro Plate Reader II from Wyatt Technology. Before the DLS measurement, solutions were filtered through […] pore size filters. The concentration of each solution was then adjusted to 20 μM. 60 μL from each sample was pipetted into three different wells on the plate reader and covered by 15 μL mineral oil each to avoid solvent evaporation. Centrifugation was then performed to remove air bubbles. […] Based on this DLS method, Applicants performed a stability assay to explore the stability of the fusion protein by measuring the mean Rh shift during incubation at physiological temperature. Briefly, the fusion solution was incubated at 37° C. for different periods of time up to 48 h and the mean Rh of CA192 at these different time points was measured with DLS. […] There might be some slight aggregation occurring in the CA192 protein solution. […] To determine if this was the case, further separation was conducted with size exclusion chromatography (SEC). This process was performed at 4° C. using a Hiload 26/600 column (26×600 mm, particle size 24-44 μM). […] Fragments with absorption above 10 mAu were collected and concentrated with a Spin-X concentrator (pore size 10 kDa). […] (FIG. 5D) Through measuring the CA192 concentration of both fractions, Applicants determined that 20.8% by mass in solution is represented by the multimerized particles. […]

human albumin = human albumin (Homo sapiens, UniProt P02768); experiment: Competition of CsA-loaded CA192 against human albumin (1 mM, 37° C.); format: in vitro ADME; details: 48 h
Protocol: Per molecule of protein, CA192 (SEQ ID NO: 3) binds 10× more drug than albumin. […] The mixture was incubated at 37° C. and samples were collected at different time points up to 48 h. The ELP phase separation was induced to purify CA192 (SEQ ID NO: 3) from the mixture with Albumin, which was—followed by RP-HPLC analysis. (FIG. 4C) Instead of albumin, lipoproteins in the plasma, mainly high-(HDL) and low-(LDL) density lipoprotein, predominantly bind to cyclosporine in the plasma. Thus, CA192-CsA was also tested against mouse plasma over a period of 48 hr.
Samples were collected from the dialysis cassette at different time points between 0 and 192 h and analyzed by RP-HPLC. […] The same drug release experiment was performed using CA192 dimer obtained via SEC. Dialysis was performed against PBS at 37° C. (FIG. 3B) and 4° C. (FIG. 3C). To further validate the release profile, as a control group, with the same encapsulation method, human albumin was explored to load CsA. […] The mixture was incubated at 37° C. and samples were collected at different time points up to 48 h. Another round of […] was performed to purify CA192 from the mixture, followed by RP-HPLC analysis. […] Similar to this competition method against albumin, 300 μM CA192-CsA in PBS was diluted 1:1 in mouse plasma to achieve a final concentration of 150 μM. […]

HeLa cells = experiment: HeLa cell uptake, co-localization with lysosomes (confocal microscopy); format: cell-based; details: 30 μM rhodamine-labeled ELP; 120 min; LysoTracker Green
Protocol: Lysosomes were labeled by LysoTracker Green® having the structure:
In order to further validate the potential efficacy of CA192 working as a potent drug binding domain, an in vitro cell uptake study was performed. Briefly, CA192 and A192 was labeled with rhodamine and HeLa cell lysosome with LysoTracker Green (LTG)® having the structure as described herein. For the treatment group, HeLa cells were incubated with 30 μM of rhodamine-labeled (rh)-CA192 and 70 nM of LTG for 120 min. For the control group, HeLa cells were incubated with 30 μM of rhodamine-labeled (rh)-A192 and 70 nM of LTG for 120 min. Cells were then rinsed with warm HBSS three times, maintained in the fresh culture medium, and imaged by confocal microscopy. Images were acquired using a Zeiss laser scanning microscope 510 Meta NLO confocal imaging system equipped with Argon, red HeNe, green HeNe laser, and a Coherent Chameleon Ti-Sapphire laser (LSM) mounted on a vibration-free table (Carl Zeiss, Thornwood, N.Y.). All images were acquired using a Plan-Apochromat 63× Oil immersion lens with a working distance of 0.19 mm.

MDA-MB-468 cell line = experiment: Cellular uptake of FAF; format: cell-based; details: concentrations up to 100 μM
MDA-MB-468 cells = experiment: Split luciferase reporter for cytosolic Rapa; format: cell-based
Source text: FIGS. 22A-22B: FAF delays the access of Rapa to the cytosol in a manner consistent with macropinocytosis. FIG. 22A: MDA-VB-468 cells were transfected with a split luciferase reporter that enables the specific detection of Rapa within the cytosol. […] Free Rapa luminescence kinetics were unaffected by amiloride. (Mean±95% CI, n=6).
To understand drug release, cells were engineered to express a luciferase reporter for cytosolic Rapamycin. […] This is evidence that FAF dominates the intracellular delivery of rapalogues.

Compound: CC1=C(/C=C/C(C)=C/C=C/C(C)=C/C(=O)O)C(C)(C)CCC1 [ATRA, All trans retinoic acid]
- AUC on 28th day of administration relative to AUC on day 1 ([1]; daily treatment): 10%
- half-life ([1]; in vivo): 0.75 h
- affinity to Pin1 (Pin1): sun-micromolar affinity

Compound: C/C=C/C[C@@H](C)[C@@H](O)[C@H]1C(=O)N[C@@H](CC)C(=O)N(C)CC(=O)N(C)[C@@H](CC(C)C)C(=O)N[C@@H](C(C)C)C(=O)N(C)[C@@H](CC(C)C)C(=O)N[C@@H](C)C(=O)N[C@H](C)C(=O)N(C)[C@@H](CC(C)C)C(=O)N(C)[C@@H](CC(C)C)C(=O)N(C)[C@@H](C(C)C)C(=O)N1C [CsA, Cyclosporin A]
- IC50 ([2]; PMA and Ionomycin, 6 h, read-out: IC50, IL-2 secretion assay): 0.522 ± 0.152 nM
- IC50 ([2]; FIG. 10 legend, read-out: IC50, IL-2 inhibition): 0.522 ± 0.152 nM

Compound: CO[C@H]1C[C@@H]2CC[C@@H](C)[C@@](O)(O2)C(=O)C(=O)N2CCCC[C@H]2C(=O)O[C@H]([C@H](C)C[C@@H]2CC[C@@H](OCCO)[C@H](OC)C2)CC(=O)[C@H](C)/C=C(\C)[C@@H](O)[C@@H](OC)C(=O)[C@H](C)C[C@H](C)/C=C/C=C/C=C/1C [Eve, Everolimus]
- patients with adverse events necessitating discontinuation of treatment [3]: 10 % of patients
- patients with adverse events necessitating dose reduction [3]: 75 % of patients
- tumor growth compared to PBS treated mice (BT-474 orthotopic tumors): not statistically significant

Compound: CA192: cyclophilin A fused to ELP A192, SEQ ID NO: 3
- Transition temperature (Tt) [4]: 45.4 °C
- Slope, m ([4]; fit Tt = b - m Log10[CELP], mean ± 95% CI, Table 2): 1.3 ° C./Log10(μM) and 1.3 ± 0.27 ° C./Log10(μM)
- Intercept, b ([4]; intercept at 1 μM, mean ± 95% CI, Table 2): 47.1 °C and 47.1 ± 0.39 °C
- Mass Fraction, Fraction 1 (Nano-aggregated form) ([5]; MALS): 10.1%
- Mass Fraction, Fraction 2 (Dimeric form) ([5]; MALS): 89.9%
- multimerized particles in solution ([5]; from CA192 concentration of both SEC fractions): 20.8 % by mass
- CsA loading compared with a comparator [6]: significantly more drug than albumin
- stability of Rh ([7]; 37° C., up to 48 h): well maintained throughout 48 h; also recorded: no significant hydrodynamic radius shift; also recorded: stability over 2 days
- mean hydrodynamic radius (Rh) ([7]; DLS intensity, 20 μM): 64.8±0.7 nm
- transfer of CsA from CA192 to albumin (human albumin): No significant drug loss; also recorded: unable to extract CsA
- co-localization with lysosomes (HeLa cells): obvious co-localization with lysosome; also recorded: co-localized with lysosomes; also recorded: co-localizing with lysosomes

Compound: FAF: FKBP fused to each terminus of ELP A192, SEQ ID NO: 25
- saturation of cellular uptake (MDA-MB-468 cell line): no dose-dependent saturation
- Transition temperature at 25 μM ([4]; 25 μM, Table 5): 55.1 °C
- MAT (SC, Non-compartment): 9.6 h
- elimination half-life (mouse, in vivo, iv): about 7 hrs
- MRT (mouse, in vivo, sc): 20.3 h
- Tmax (mouse, in vivo, sc): 12 h
- delay of cytosolic access of Rapa versus free drug (MDA-MB-468 cells): about a half-hour
- effect of amiloride on cytosolic detection of Rapa (MDA-MB-468 cells; macropinocytosis inhibitor amiloride added): completely suppressed

Compound: dimerized CA192: dimeric fraction of CA192 isolated by size exclusion chromatography
- Transition temperature (Tt) [4]: 49.3 °C
- hydrodynamic radius (Rh) after SEC ([7]; 99.2% by mass of fraction 2): 6.5±0.1 nm
